# Experimental data: PMC5618490, “Arabidopsis E3 Ubiquitin Ligases PUB22 and PUB23 Negatively Regulate Drought Tolerance by Targeting ABA Receptor PYL9 for Degradation” (International Journal of Molecular Sciences, 2017)
# T1: MBP-PUB22 (Arabidopsis thaliana, UniProt Q9SVC6 1-435)
# T1 construct: PUB22, plant U-box E3 ubiquitin ligase, Arabidopsis thaliana; Kept on the amylose resin for the pull-down; source: E. coli BL21 (DE3), purified (amylose resin); not shown: MBP, N-terminal, kept
# T1 sequence (looked up): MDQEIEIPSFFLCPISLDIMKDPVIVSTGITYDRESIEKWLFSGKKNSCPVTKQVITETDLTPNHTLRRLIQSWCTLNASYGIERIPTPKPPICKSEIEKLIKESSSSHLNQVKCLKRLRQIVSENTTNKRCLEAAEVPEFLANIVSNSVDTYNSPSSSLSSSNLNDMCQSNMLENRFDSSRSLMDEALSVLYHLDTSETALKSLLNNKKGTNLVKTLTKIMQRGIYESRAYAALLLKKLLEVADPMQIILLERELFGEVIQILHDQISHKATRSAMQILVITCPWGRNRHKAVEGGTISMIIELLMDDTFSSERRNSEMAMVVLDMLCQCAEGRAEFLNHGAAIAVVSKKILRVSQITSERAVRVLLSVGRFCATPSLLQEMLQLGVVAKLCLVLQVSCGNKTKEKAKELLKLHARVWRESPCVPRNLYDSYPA
# T2: MBP-PUB23 (Arabidopsis thaliana, UniProt Q84TG3 1-411)
# T2 construct: PUB23, plant U-box E3 ubiquitin ligase, Arabidopsis thaliana; Kept on the amylose resin for the pull-down; source: E. coli BL21 (DE3), purified (amylose resin); not shown: MBP, N-terminal, kept
# T2 sequence (looked up): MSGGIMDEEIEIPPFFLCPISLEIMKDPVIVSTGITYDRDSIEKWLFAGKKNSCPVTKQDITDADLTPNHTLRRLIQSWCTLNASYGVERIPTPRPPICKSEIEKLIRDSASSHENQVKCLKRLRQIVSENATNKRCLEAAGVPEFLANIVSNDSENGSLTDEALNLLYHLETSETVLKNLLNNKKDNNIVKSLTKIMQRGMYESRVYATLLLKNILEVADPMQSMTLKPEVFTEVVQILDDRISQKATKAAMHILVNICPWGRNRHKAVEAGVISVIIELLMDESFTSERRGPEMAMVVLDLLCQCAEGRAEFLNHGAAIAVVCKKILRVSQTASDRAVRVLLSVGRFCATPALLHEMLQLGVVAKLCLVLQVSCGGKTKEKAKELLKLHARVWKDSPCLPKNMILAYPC
# Tests used:
# MBP-PUB22 = molecular target: T1, MBP-PUB22; experiment: pull-down; MBP-PUBs or MBP on amylose resin incubated with GST-PYLs for 1 h at room temperature in 20 mM Tris-HCl pH 7.2, 10 mM MgCl2, 2 mM DTT; washed five times; blot with anti-GST antibody; conditions: both partners purified
# MBP-PUB23 = molecular target: T2, MBP-PUB23; experiment: as above; conditions: both partners purified
binding result (MBP-PUB22),binding result (MBP-PUB23),Binder
binds,,"GST-PYL5 (receptor, Arabidopsis thaliana, UniProt Q9FLB1 1-203, looked up, PYL5, PYR/PYL/RCAR family ABA receptor, Arabidopsis thaliana; cDNA fused to the C terminus of the GST tag in pCold-GST; source: E. coli DE3 cells, purified (Glutathione Sepharose 4B); not shown: GST, N-terminal, kept) MRSPVQLQHGSDATNGFHTLQPHDQTDGPIKRVCLTRGMHVPEHVAMHHTHDVGPDQCCSSVVQMIHAPPESVWALVRRFDNPKVYKNFIRQCRIVQGDGLHVGDLREVMVVSGLPAVSSTERLEILDEERHVISFSVVGGDHRLKNYRSVTTLHASDDEGTVVVESYIVDVPPGNTEEETLSFVDTIVRCNLQSLARSTNRQ"
binds,,"GST-PYL7 (receptor, Arabidopsis thaliana, UniProt Q1ECF1 1-211, looked up, PYL7, PYR/PYL/RCAR family ABA receptor, Arabidopsis thaliana; cDNA fused to the C terminus of the GST tag in pCold-GST; source: E. coli DE3 cells, purified (Glutathione Sepharose 4B); not shown: GST, N-terminal, kept) MEMIGGDDTDTEMYGALVTAQSLRLRHLHHCRENQCTSVLVKYIQAPVHLVWSLVRRFDQPQKYKPFISRCTVNGDPEIGCLREVNVKSGLPATTSTERLEQLDDEEHILGINIIGGDHRLKNYSSILTVHPEMIDGRSGTMVMESFVVDVPQGNTKDDTCYFVESLIKCNLKSLACVSERLAAQDITNSIATFCNASNGYREKNHTETNL"
binds,,"GST-PYL8 (receptor, Arabidopsis thaliana, UniProt Q9FGM1 1-188, looked up, PYL8, PYR/PYL/RCAR family ABA receptor, Arabidopsis thaliana; cDNA fused to the C terminus of the GST tag in pCold-GST; source: E. coli DE3 cells, purified (Glutathione Sepharose 4B); not shown: GST, N-terminal, kept) MEANGIENLTNPNQEREFIRRHHKHELVDNQCSSTLVKHINAPVHIVWSLVRRFDQPQKYKPFISRCVVKGNMEIGTVREVDVKSGLPATRSTERLELLDDNEHILSIRIVGGDHRLKNYSSIISLHPETIEGRIGTLVIESFVVDVPEGNTKDETCYFVEALIKCNLKSLADISERLAVQDTTESRV"
,binds,"GST-PYL9 (receptor, Arabidopsis thaliana, UniProt Q84MC7 1-187, looked up, PYL9, PYR/PYL/RCAR family ABA receptor, Arabidopsis thaliana; cDNA fused to the C terminus of the GST tag in pCold-GST between EcoRI and SalI; source: E. coli, purified (Glutathione Sepharose 4B, eluted with reduced glutathione); not shown: GST, N-terminal, kept) MMDGVEGGTAMYGGLETVQYVRTHHQHLCRENQCTSALVKHIKAPLHLVWSLVRRFDQPQKYKPFVSRCTVIGDPEIGSLREVNVKSGLPATTSTERLELLDDEEHILGIKIIGGDHRLKNYSSILTVHPEIIEGRAGTMVIESFVVDVPQGNTKDETCYFVEALIRCNLKSLADVSERLASQDITQ"
